The target in the assay is α4 laminin fragment G^919-1207 (SEQ ID NO:13) (human), Q16363. Nature of the assay: solid-phase saturation binding ELISA: coated G^919-1207 at varying concentrations, soluble integrin at 5 ng/µl, detected with LM609. (In general: An ELISA detects its analyte on a solid surface through an enzyme-linked reagent.)

Our source for the Kd values is patent US20030103975A1.

Sequence of α4 laminin fragment G^919-1207 (SEQ ID NO:13) (human), Q16363 (Q16363 926-1214 G1117S/P1119X limits assumed): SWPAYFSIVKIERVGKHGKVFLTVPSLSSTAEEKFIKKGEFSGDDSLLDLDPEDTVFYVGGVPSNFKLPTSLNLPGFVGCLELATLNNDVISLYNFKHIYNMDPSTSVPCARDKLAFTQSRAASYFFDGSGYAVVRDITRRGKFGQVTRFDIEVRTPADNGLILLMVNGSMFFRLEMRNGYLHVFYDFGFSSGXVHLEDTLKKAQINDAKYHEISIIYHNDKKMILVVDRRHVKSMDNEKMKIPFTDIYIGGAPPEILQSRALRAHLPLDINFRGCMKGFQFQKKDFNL

B1: soluble αvβ3 integrin heterodimer (Chemicon International), P06756 31-992; P05106 27-718 (receptor)
chain 1: FNLDVDSPAEYSGPEGSYFGFAVDFFVPSASSRMFLLVGAPKANTTQPGIVEGGQVLKCDWSSTRRCQPIEFDATGNRDYAKDDPLEFKSHQWFGASVRSKQDKILACAPLYHWRTEMKQEREPVGTCFLQDGTKTVEYAPCRSQDIDADGQGFCQGGFSIDFTKADRVLLGGPGSFYWQGQLISDQVAEIVSKYDPNVYSIKYNNQLATRTAQAIFDDSYLGYSVAVGDFNGDGIDDFVSGVPRAARTLGMVYIYDGKNMSSLYNFTGEQMAAYFGFSVAATDINGDDYADVFIGAPLFMDRGSDGKLQEVGQVSVSLQRASGDFQTTKLNGFEVFARFGSAIAPLGDLDQDGFNDIAIAAPYGGEDKKGIVYIFNGRSTGLNAVPSQILEGQWAARSMPPSFGYSMKGATDIDKNGYPDLIVGAFGVDRAILYRARPVITVNAGLEVYPSILNQDNKTCSLPGTALKVSCFNVRFCLKADGKGVLPRKLNFQVELLLDKLKQKGAIRRALFLYSRSPSHSKNMTISRGGLMQCEELIAYLRDESEFRDKLTPITIFMEYRLDYRTAADTTGLQPILNQFTPANISRQAHILLDCGEDNVCKPKLEVSVDSDQKKIYIGDDNPLTLIVKAQNQGEGAYEAELIVSIPLQADFIGVVRNNEALARLSCAFKTENQTRQVVCDLGNPMKAGTQLLAGLRFSVHQQSEMDTSVKFDLQIQSSNLFDKVSPVVSHKVDLAVLAAVEIRGVSSPDHVFLPIPNWEHKENPETEEDVGPVVQHIYELRNNGPSSFSKAMLHLQWPYKYNNNTLLYILHYDIDGPMNCTSDMEINPLRIKISSLQTTEKNDTVAGQGERDHLITKRDLALSEGDIHTLGCGVAQCLKIVCQVGRLDRGKSAILYVKSLLWTETFMNKENQNHSYSLKSSASFNVIEFPYKNLPIEDITNSTLVTTNVTWGIQPAPMPV
chain 2: GPNICTTRGVSSCQQCLAVSPMCAWCSDEALPLGSPRCDLKENLLKDNCAPESIEFPVSEARVLEDRPLSDKGSGDSSQVTQVSPQRIALRLRPDDSKNFSIQVRQVEDYPVDIYYLMDLSYSMKDDLWSIQNLGTKLATQMRKLTSNLRIGFGAFVDKPVSPYMYISPPEALENPCYDMKTTCLPMFGYKHVLTLTDQVTRFNEEVKKQSVSRNRDAPEGGFDAIMQATVCDEKIGWRNDASHLLVFTTDAKTHIALDGRLAGIVQPNDGQCHVGSDNHYSASTTMDYPSLGLMTEKLSQKNINLIFAVTENVVNLYQNYSELIPGTTVGVLSMDSSNVLQLIVDAYGKIRSKVELEVRDLPEELSLSFNATCLNNEVIPGLKSCMGLKIGDTVSFSIEAKVRGCPQEKEKSFTIKPVGFKDSLIVQVTFDCDCACQAQAEPNSHRCNNGNGTFECGVCRCGPGWLGSQCECSEEDYRPSQQDECSPREGQPVCSQRGECLCGQCVCHSSDFGKITGKYCECDDFSCVRYKGEMCSGHGQCSCGDCLCDSDWTGYYCNCTTRTDTCMSSNGLLCSGRGKCECGSCVCIQPGSYGDTCEKCPTCPDACTFKKECVECKKFDRGALHDENTCNRYCRDEIESVKELKDTGKDAVNCTYKNEDDCVVRFQYYEDSSGKSILYVVEEPECPKGPD
Broadly, the Kd is the free concentration of one partner at which half of the binding sites on the other are occupied at equilibrium, for simple one-to-one binding. Read a high Kd as a looser complex. The molecule B1 displayed a Kd of 4 nM.
